According to patent US20230203190A1:
“And” between values parts separate entries of the source, which are not always exact repeats. Equal values may be shown once. Values belong to the molecule of their own block, whether it stands above or below them.

Legend:
[1] = target: human colorectal and pancreatic carcinoma-associated antigens (CPAA) (human); experiment: flow cytometry, LS174T colorectal tumor cells, control antibody
[2] = target: human colorectal and pancreatic carcinoma-associated antigens (CPAA) (human); experiment: flow cytometry, MCF-7 breast tumor cells, control antibody
[3] = target: human colorectal and pancreatic carcinoma-associated antigens (CPAA) (human); experiment: flow cytometry, CFPAC-1 pancreatic tumor cells, control antibody
[4] = target: human colorectal and pancreatic carcinoma-associated antigens (CPAA) (human); experiment: flow cytometry, OVCAR-3 ovarian tumor cells, control antibody
[5] = target: human colorectal and pancreatic carcinoma-associated antigens (CPAA) (human); experiment: flow cytometry, GEO colorectal tumor cells, control antibody
[6] = target: human colorectal and pancreatic carcinoma-associated antigens (CPAA) (human); experiment: flow cytometry, H226 squamous tumor cells (type reported as not bound), 2 ug NPC-1C per 100,000 cells
[7] = target: human colorectal and pancreatic carcinoma-associated antigens (CPAA) (human); experiment: flow cytometry, DU145 prostate tumor cells (type reported as not bound), 2 ug NPC-1C per 100,000 cells
[8] = target: human colorectal and pancreatic carcinoma-associated antigens (CPAA) (human); experiment: flow cytometry, PC-3 prostate tumor cells (type reported as not bound), 2 ug NPC-1C per 100,000 cells
[9] = target: human colorectal and pancreatic carcinoma-associated antigens (CPAA) (human); experiment: flow cytometry, AsPC-1 pancreatic tumor cells, 2 ug NPC-1C per 100,000 cells
[10] = target: human colorectal and pancreatic carcinoma-associated antigens (CPAA) (human); experiment: flow cytometry, SW1116 colorectal tumor cells, 2 ug NPC-1C per 100,000 cells
[11] = target: human colorectal and pancreatic carcinoma-associated antigens (CPAA) (human); experiment: flow cytometry, LS174T colorectal tumor cells, 2 ug NPC-1C per 100,000 cells
[12] = target: human colorectal and pancreatic carcinoma-associated antigens (CPAA) (human); experiment: flow cytometry, HT-29 colorectal tumor cells, 2 ug NPC-1C per 100,000 cells
[13] = target: human colorectal and pancreatic carcinoma-associated antigens (CPAA) (human); experiment: flow cytometry, SW756 squamous tumor cells (type reported as not bound), 2 ug NPC-1C per 100,000 cells
[14] = target: human colorectal and pancreatic carcinoma-associated antigens (CPAA) (human); experiment: flow cytometry, CFPAC-1 pancreatic tumor cells, 2 ug NPC-1C per 100,000 cells
[15] = target: human colorectal and pancreatic carcinoma-associated antigens (CPAA) (human); experiment: flow cytometry, SW1463 colorectal tumor cells, 2 ug NPC-1C per 100,000 cells
[16] = target: human colorectal and pancreatic carcinoma-associated antigens (CPAA) (human); experiment: flow cytometry, SW480 colorectal tumor cells, 2 ug NPC-1C per 100,000 cells
[17] = target: human colorectal and pancreatic carcinoma-associated antigens (CPAA) (human); experiment: flow cytometry, Panc-1 pancreatic tumor cells, 2 ug NPC-1C per 100,000 cells
[18] = target: human colorectal and pancreatic carcinoma-associated antigens (CPAA) (human); experiment: flow cytometry, SW620 colorectal tumor cells, 2 ug NPC-1C per 100,000 cells
[19] = target: human colorectal and pancreatic carcinoma-associated antigens (CPAA) (human); experiment: flow cytometry, HTB-35 squamous tumor cells (type reported as not bound), 2 ug NPC-1C per 100,000 cells
[20] = target: human colorectal and pancreatic carcinoma-associated antigens (CPAA) (human); experiment: flow cytometry, H520 squamous tumor cells (type reported as not bound), 2 ug NPC-1C per 100,000 cells
[21] = target: human colorectal and pancreatic carcinoma-associated antigens (CPAA) (human); experiment: flow cytometry, Colo-205 colorectal tumor cells, 2 ug NPC-1C per 100,000 cells
[22] = target: human colorectal and pancreatic carcinoma-associated antigens (CPAA) (human); experiment: flow cytometry, MCF-7 breast tumor cells (line reported as not bound), 2.5 ug NPC-1 per 100,000 cells
[23] = target: human colorectal and pancreatic carcinoma-associated antigens (CPAA) (human); experiment: flow cytometry, OVCAR-3 ovarian tumor cells (line reported as not bound), 2.5 ug NPC-1 per 100,000 cells
[24] = target: human colorectal and pancreatic carcinoma-associated antigens (CPAA) (human); experiment: flow cytometry, CFPAC-1 pancreatic tumor cells, 2.5 ug NPC-1 per 100,000 cells
[25] = target: human colorectal and pancreatic carcinoma-associated antigens (CPAA) (human); experiment: flow cytometry, LS174T colorectal tumor cells, 2.5 ug NPC-1 per 100,000 cells
[26] = target: human colorectal and pancreatic carcinoma-associated antigens (CPAA) (human); experiment: flow cytometry, GEO colorectal tumor cells, 2.5 ug NPC-1 per 100,000 cells

% Cell Staining [1]: 0.93%
% Cell Staining [2]: 0.94%
% Cell Staining [3]: 0.44%
% Cell Staining [4]: 0.19%
% Cell Staining [5]: 0.78%
Molecule: Isotype Control (antibody)

% Cell Staining [6]: 0.49% and 0.4%
mfi (mean fluorescence intensity) [6]: 32
% Cell Staining [7]: 0.24% and 0.14%
% Cell Staining [8]: 1.34% and 1.52%
mfi (mean fluorescence intensity) [8]: 17 and 28
% Cell Staining [9]: 0.43% and 0.35%
mfi (mean fluorescence intensity) [9]: 33 and 34
% Cell Staining [10]: 1.12% and 2.37%
mfi (mean fluorescence intensity) [10]: 97 and 174
% Cell Staining [11]: 11.6% and 11.2%
mfi (mean fluorescence intensity) [11]: 43 and 47
% Cell Staining [12]: 1.3% and 1.09%
mfi (mean fluorescence intensity) [12]: 55 and 34
% Cell Staining [13]: 0.75% and 2.14%
mfi (mean fluorescence intensity) [13]: 186 and 178
% Cell Staining [14]: 11.2% and 10.6%
mfi (mean fluorescence intensity) [14]: 16 and 15
% Cell Staining [15]: 3.72% and 4.29%
mfi (mean fluorescence intensity) [15]: 410 and 399
% Cell Staining [16]: 1.41% and 1.34%
mfi (mean fluorescence intensity) [16]: 44 and 64
% Cell Staining [17]: 0.75% and 0.41%
mfi (mean fluorescence intensity) [17]: 69 and 31
% Cell Staining [18]: 0.24% and 0.85%
mfi (mean fluorescence intensity) [18]: 184 and 74
% Cell Staining [19]: 4.83% and 3.85%
mfi (mean fluorescence intensity) [19]: 97 and 123
% Cell Staining [20]: 1.66% and 0.93%
mfi (mean fluorescence intensity) [20]: 129 and 173
% Cell Staining [21]: 2.26% and 1.44%
mfi (mean fluorescence intensity) [21]: 154 and 67
B1: NPC-1C chimeric antibody (antibody, mouse IgG1, kappa, V domains shown)
VH: QVQLKESGPDLVAPSQSLSITCIVSGFSLSKFGVNWVRQPPGKGLEWLGVIWGDGSTSYNSGLISRLSIKENSKSQVFLKLNSLQADDTATYYCVKPGGDYWGHGTSVTVSS
VL: QVVLTQSPVIMSASPGEKVTMTCSASSSISYMYWYQQKPGTSPRWIYDTSKLASGVPARFSGGSGTSYSLTISNMEAGDAAYYCHQRDSYPWTFGGGTNLIKRA

% Cell Staining [22]: 0.19%
% Cell Staining [23]: 0.19%
% Cell Staining [24]: 54.6%
% Cell Staining [25]: 57%
% Cell Staining [26]: 86.9%
B2: NPC-1 monoclonal antibody (antibody, mouse IgG1, kappa, V domains shown)
VH: QVQLKESGPDLVAPSQSLSITCIVSGFSLSKFGVNWVRQPPGKGLEWLGVIWGDGSTSYNSGLISRLSIKENSKSQVFLKLNSLQADDTATYYCVKPGGDYWGHGTSVTVSS
VL: QVVLTQSPVIMSASPGEKVTMTCSASSSISYMYWYQQKPGTSPRWIYDTSKLASGVPARFSGGSGTSYSLTISNMEAGDAAYYCHQRDSYPWTFGGGTNLIKRA
